Consider three molecules from PMC8410842, “Heimdallarchaea encodes profilin with eukaryotic-like actin regulation and polyproline binding” (Communications Biology, 2021).

Like-named read-outs stand apart in the source and are kept apart here.

One test has as its target T1, ΔN-heimProfilin (Candidatus Heimdallarchaeota archaeon LC_3, UniProt A0A1Q9NL85).
T1 construct: gene HeimC3_27980; residues 1-23 (N-terminal extension) deleted; E. coli Rosetta DE3; His6-SUMO tag cleaved with Ulp1; 15N labelled; PDB 6YRR is the full-length parent
Nature of the test: NMR 1H-15N TROSY-HSQC titration. As to conditions: 25 mM Tris-HCl pH 7.5, 50 mM NaCl, 5% glycerol, 298 K; acyl chains not given. Type of test: binding.

Test [1] addresses ΔN-heimProfilin (Candidatus Heimdallarchaeota archaeon LC_3). Nature of the test: ITC; profilin in the cell (approx. 0.1-0.5 mM), 20 injections of 1.0-14 mM polyproline (VASP); 50 mM Na3PO4 pH 7.5, 50 mM NaCl; 25 °C; triplicates.
The target in test [2] is Heimdallarchaeota LC3 profilin (heimProfilin) (Candidatus Heimdallarchaeota archaeon LC_3). The description is as above.
In test [3] the target is both the full-length protein and ΔN-thorProfilin. Nature of the test: NMR titration; 1H-15N TROSY-HSQC; fixed thorProfilin or ΔN-thorProfilin (200 μM), increasing polyproline … (0, 5, 7 mM in the legend); 25 mM Tris-HCl pH 6.8, 150 mM NaCl; KD from fits of chemical shifts of a few residues.
The target is the same in test [4]. Described as above. The source holds these as a separate data set.

Regarding PIP2, the affinity at ΔN-heimProfilin is on record as ~ 0.5–1 ± 0.3 mM.

With GAGGGPPPAPPLPAAQ [polyproline motif of VASP (…)], the equilibrium dissociation constant (Kd) in test [1] was determined as 300 µM; in test [2], 3300 µM. On to PPPAPPLPAAQ [polyproline from VASP (…)], for which the Kd in test [3] was 250 to 500 µM; in test [4], 200 to 500 µM.
